According to US20200165325A1:

Legend:
[1] = biological target: HIV-1 Env of strain 3016.v5.c45 (HIV-1)
[2] = biological target: HIV-1 Env of strain Ce0682_E4 (HIV-1)
[3] = biological target: HIV-1 Env of strain Du172.17 (HIV-1)
[4] = biological target: HIV-1 Env of strain C1080.c03 (HIV-1)
[5] = biological target: HIV-1 Env of strain Ce2060_G9 (HIV-1)
[6] = biological target: HIV-1 Env of strain X1193_c1 (HIV-1)
[7] = biological target: HIV-1 Env of strain 89-F1_2_25 (HIV-1)
[8] = biological target: HIV-1 Env of strain CAAN5342.A2 (HIV-1)
[9] = biological target: HIV-1 Env of strain AC10.0.29 (HIV-1)
[10] = biological target: HIV-1 Env of strain 3301.v1.c24 (HIV-1)
[11] = biological target: HIV-1 Env of strain 0815.v3.c3 (HIV-1)
[12] = biological target: HIV-1 Env of strain 6811.v7.c18 (HIV-1)
[13] = biological target: HIV-1 Env of strain 3415.v1.c1 (HIV-1)
[14] = biological target: HIV-1 Env of strain PVO.4 (HIV-1)
[15] = biological target: HIV-1 Env of strain THRO4156.18 (HIV-1)
[16] = biological target: HIV-1 Env of strain 6540.v4.c1 (HIV-1)
[17] = biological target: HIV-1 Env of strain CNE20 (HIV-1)
[18] = biological target: HIV-1 Env of strain RHPA4259.7 (HIV-1)
[19] = biological target: HIV-1 Env of strain REJO4541.67 (HIV-1)
[20] = biological target: HIV-1 Env of strain HIV-16845-2.22 (HIV-1)
[21] = biological target: HIV-1 Env of strain ZM135M.PL10a (HIV-1)
[22] = biological target: HIV-1 Env of strain Q461.e2 (HIV-1)
[23] = biological target: HIV-1 Env of strain T278-50 (HIV-1)
[24] = biological target: HIV-1 Env of strain Q23.17 (HIV-1)
[25] = biological target: HIV-1 Env of strain Q259.d2.17 (HIV-1)
[26] = biological target: HIV-1 Env of strain CNE58 (HIV-1)
[27] = biological target: HIV-1 Env of strain ZM233M.PB6 (HIV-1)
[28] = biological target: HIV-1 Env of strain Ce1176_A3 (HIV-1)
[29] = biological target: HIV-1 Env of strain 211-9 (HIV-1)
[30] = biological target: HIV-1 Env of strain 1006_11_C3_1601 (HIV-1)
[31] = biological target: HIV-1 Env of strain TRJO4551.58 (HIV-1)
[32] = biological target: HIV-1 Env of strain ZM197M.PB7 (HIV-1)
[33] = biological target: HIV-1 Env of strain C3347.c11 (HIV-1)
[34] = biological target: HIV-1 Env of strain T251-18 (HIV-1)
[35] = biological target: HIV-1 Env of strain ZM214M.PL15 (HIV-1)
[36] = biological target: HIV-1 Env of strain 0330.v4.c3 (HIV-1)
[37] = biological target: HIV-1 Env of strain C2101.c01 (HIV-1)
[38] = biological target: HIV-1 Env of strain 703357.C02 (HIV-1)
[39] = biological target: HIV-1 Env of strain 6480.v4.c25 (HIV-1)
[40] = biological target: HIV-1 Env of strain T257-31 (HIV-1)
[41] = biological target: HIV-1 Env of strain R2184.c04 (HIV-1)
[42] = biological target: HIV-1 Env of strain ZM249M.PL1 (HIV-1)
[43] = biological target: HIV-1 Env of strain P1981_C5_3 (HIV-1)
[44] = biological target: HIV-1 Env of strain 3103.v3.c10 (HIV-1)
[45] = biological target: HIV-1 Env of strain CAP45.2.00.G3 (HIV-1)
[46] = biological target: HIV-1 Env of strain X2131_C1_B5 (HIV-1)
[47] = biological target: HIV-1 Env of strain 231965.c01 (HIV-1)
[48] = biological target: HIV-1 Env of strain 6545.v4.c1 (HIV-1)
[49] = biological target: HIV-1 Env of strain ZM109F.PB4 (HIV-1)
[50] = biological target: HIV-1 Env of strain Ce703010054_2A2 (HIV-1)
[51] = biological target: HIV-1 Env of strain WEAU_d15_410_787 (HIV-1)
[52] = biological target: HIV-1 Env of strain 3718.v3.c11 (HIV-1)
[53] = biological target: HIV-1 Env of strain CNE17 (HIV-1)
[54] = biological target: HIV-1 Env of strain 1054_07_TC4_1499 (HIV-1)
[55] = biological target: HIV-1 Env of strain Ce0393_C3 (HIV-1)
[56] = biological target: HIV-1 Env of strain T250-4 (HIV-1)
[57] = biological target: HIV-1 Env of strain R1166.c01 (HIV-1)

For NIH45-46 G54Y IgG (antibody), which In vitro neutralization IC80 [1] is on record?
The In vitro neutralization IC80 was over 50 µg/mL.

And the In vitro neutralization IC80 [2]?
Its In vitro neutralization IC80 is 0.065 µg/mL.

What about the In vitro neutralization IC80 [3] of the same substance?
The In vitro neutralization IC80 was over 50 µg/mL.

What about the In vitro neutralization IC80 [4] of the same substance?
The In vitro neutralization IC80 was 1.83 µg/mL.

And the In vitro neutralization IC80 [5]?
The In vitro neutralization IC80 was 0.068 µg/mL.

And the In vitro neutralization IC80 [6]?
Its In vitro neutralization IC80 is 0.024 µg/mL.

And the In vitro neutralization IC80 [7]?
Its In vitro neutralization IC80 is over 50 µg/mL.

And the In vitro neutralization IC80 [8]?
Its In vitro neutralization IC80 is 0.27 µg/mL.

What about the In vitro neutralization IC80 [9] of the same substance?
The In vitro neutralization IC80 was 0.9 µg/mL.

What about the In vitro neutralization IC80 [10] of the same substance?
The In vitro neutralization IC80 was 0.014 µg/mL.

What about the In vitro neutralization IC80 [11] of the same substance?
Its In vitro neutralization IC80 is 0.015 µg/mL.

And the In vitro neutralization IC80 [12]?
Its In vitro neutralization IC80 is 0.059 µg/mL.

And the In vitro neutralization IC80 [13]?
Its In vitro neutralization IC80 is 0.037 µg/mL.

What about the In vitro neutralization IC80 [14] of the same substance?
Its In vitro neutralization IC80 is 0.18 µg/mL.

And the In vitro neutralization IC80 [15]?
Its In vitro neutralization IC80 is 2.14 µg/mL.

What about the In vitro neutralization IC80 [16] of the same substance?
Its In vitro neutralization IC80 is over 50 µg/mL.

What about the In vitro neutralization IC80 [17] of the same substance?
Its In vitro neutralization IC80 is 2.4 µg/mL.

And the In vitro neutralization IC80 [18]?
Its In vitro neutralization IC80 is 0.02 µg/mL.

And the In vitro neutralization IC80 [19]?
Its In vitro neutralization IC80 is 0.02 µg/mL.

What about the In vitro neutralization IC80 [20] of the same substance?
Its In vitro neutralization IC80 is 2.75 µg/mL.

And the In vitro neutralization IC80 [21]?
The In vitro neutralization IC80 was 0.3 µg/mL.

What about the In vitro neutralization IC80 [22] of the same substance?
The In vitro neutralization IC80 was 0.103 µg/mL.

And the In vitro neutralization IC80 [23]?
The In vitro neutralization IC80 was over 50 µg/mL.

What about the In vitro neutralization IC80 [24] of the same substance?
Its In vitro neutralization IC80 is 0.06 µg/mL.

What about the In vitro neutralization IC80 [25] of the same substance?
The In vitro neutralization IC80 was 0.034 µg/mL.

And the In vitro neutralization IC80 [26]?
Its In vitro neutralization IC80 is 0.11 µg/mL.

And the In vitro neutralization IC80 [27]?
Its In vitro neutralization IC80 is 0.78 µg/mL.

And the In vitro neutralization IC80 [28]?
The In vitro neutralization IC80 was 0.58 µg/mL.

And the In vitro neutralization IC80 [29]?
Its In vitro neutralization IC80 is over 50 µg/mL.

What about the In vitro neutralization IC80 [30] of the same substance?
Its In vitro neutralization IC80 is 0.021 µg/mL.

And the In vitro neutralization IC80 [31]?
The In vitro neutralization IC80 was 0.07 µg/mL.

What about the In vitro neutralization IC80 [32] of the same substance?
Its In vitro neutralization IC80 is 0.21 µg/mL.

And the In vitro neutralization IC80 [33]?
Its In vitro neutralization IC80 is 0.052 µg/mL.

And the In vitro neutralization IC80 [34]?
The In vitro neutralization IC80 was 1.16 µg/mL.

What about the In vitro neutralization IC80 [35] of the same substance?
Its In vitro neutralization IC80 is 0.23 µg/mL.

And the In vitro neutralization IC80 [36]?
Its In vitro neutralization IC80 is 0.09 µg/mL.

What about the In vitro neutralization IC80 [37] of the same substance?
The In vitro neutralization IC80 was 0.27 µg/mL.

And the In vitro neutralization IC80 [38]?
Its In vitro neutralization IC80 is 30.6 µg/mL.

What about the In vitro neutralization IC80 [39] of the same substance?
Its In vitro neutralization IC80 is 0.051 µg/mL.

And the In vitro neutralization IC80 [40]?
The In vitro neutralization IC80 was 0.67 µg/mL.

What about the In vitro neutralization IC80 [41] of the same substance?
Its In vitro neutralization IC80 is 0.045 µg/mL.

What about the In vitro neutralization IC80 [42] of the same substance?
The In vitro neutralization IC80 was 0.011 µg/mL.

What about the In vitro neutralization IC80 [43] of the same substance?
The In vitro neutralization IC80 was 0.09 µg/mL.

What about the In vitro neutralization IC80 [44] of the same substance?
The In vitro neutralization IC80 was 0.81 µg/mL.

And the In vitro neutralization IC80 [45]?
The In vitro neutralization IC80 was over 50 µg/mL.

What about the In vitro neutralization IC80 [46] of the same substance?
Its In vitro neutralization IC80 is 0.39 µg/mL.

What about the In vitro neutralization IC80 [47] of the same substance?
The In vitro neutralization IC80 was 0.054 µg/mL.

And the In vitro neutralization IC80 [48]?
Its In vitro neutralization IC80 is over 50 µg/mL.

And the In vitro neutralization IC80 [49]?
Its In vitro neutralization IC80 is 0.168 µg/mL.

What about the In vitro neutralization IC80 [50] of the same substance?
Its In vitro neutralization IC80 is 0.07 µg/mL.

And the In vitro neutralization IC80 [51]?
Its In vitro neutralization IC80 is 0.008 µg/mL.

What about the In vitro neutralization IC80 [52] of the same substance?
Its In vitro neutralization IC80 is 3.85 µg/mL.

What about the In vitro neutralization IC80 [53] of the same substance?
The In vitro neutralization IC80 was 0.264 µg/mL.

And the In vitro neutralization IC80 [54]?
Its In vitro neutralization IC80 is 0.236 µg/mL.

What about the In vitro neutralization IC80 [55] of the same substance?
The In vitro neutralization IC80 was 0.134 µg/mL.

And the In vitro neutralization IC80 [56]?
Its In vitro neutralization IC80 is over 50 µg/mL.

And the In vitro neutralization IC80 [57]?
Its In vitro neutralization IC80 is 0.84 µg/mL.
